The values below come from patent US20180230235A1.

This assay deals with Human CAIX (carbonic anhydrase IX) (human) (UniProt Q16790). The experiment in a line: ELISA screening, biotinylated human CAIX 0.25 ug/ml, negative control wells.

In turn, “negative control of the ELISA screening of the maturated library (designed binder)” had an absorbance at 450 nm of 0.1 AU.
